Measurements from patent publication US20200181597A1, “Composition and Application of Arginine-depleting Agents for Cancer, Obesity, Metabolic Disorders, and Related Complications and Comorbidities” (THE HONG KONG POLYTECHNIC UNIVERSITY, priority 2018, published 2020).

What was measured:
[1] = Prevention of HFD-induced obesity, female mice; assay type: in vivo, C57BL/6J female mice; conditions: 300U weekly
Excerpt: FIG. 21 illustrates that concurrent treatment with 300U N-ABD094-rhArg (SEQ ID, NO: 50) [HFD(rhArg) group] once a week could effectively prevent HFD-induced obesity in C57BL/6J female mice. (A) Bodyweight of mice fed a HFD from 8 week old for 12 weeks, and currently treated with N-ABD094-rhArg or vehicle. Vehicle-treated female mice fed a LFD served as the lean control [LFD(vehicle) group]. (B) Weight of fat pad at main visceral (perigonadal, perirenal and mesenteric) and subcutaneous (inguinal) depots. *P<0.05, one-way ANOVA followed by Fisher's LSD. Data are expressed as mean±SEM, n=5 for each group.
FIG. 22 illustrates that concurrent treatment with 300U N-ABD094-rhArg (SEQ ID NO: 50) [HFD(rhArg) group] once a week could effectively prevent HFD-induced insulin resistance and glucose intolerance in C57BL/6J female mice. (A) Insulin tolerance test (ITT) conducted at 7 week after feeding a HFD. (B) Glucose tolerance test (GTT) conducted at 11 week after feeding a HFD. ITT and GTT results are expressed as area under the curve (AUC). *P<0.05, one-way ANOVA followed by Fisher's LSD. Data are expressed as mean±SEM, n=5 for each group.
After confirming the anti-obesity effect of N-ABD094-rhArg (SEQ ID NO: 50) on male mice, the effect of N-ABD094-rhArg (SEQ ID NO: 50) on female mice (n=5 in each group) was studied to determine if there was any sex difference.

[2] = Enzyme kinetics after metal ion substitution; assay type: biochemical
Procedure: Wild type arginase typically includes a Mn^2+ metal ion (D′Antonio & Christianson, 2011, Biochemistry, 50:8018-27). […] Purified N-ABD094-rhArg (SEQ ID NO: 50) in 20 mM Tris-HCl buffer (pH 7.4) was mixed with 20 mM of different divalent metal ions (Mn^2+, Ni^2+ or Co^2+), and was incubated at 52-55° C. for 15-60 min and then buffer exchanged with PBS buffer (pH 7.4).
Samples were subjected to enzyme activity and enzyme kinetic studies to determine the specific activity and catalytic efficiency (kcat/Km). Samples were applied to inductively coupled plasma atomic emission spectroscopy (ICP-OES, Agilent 700 Series ICP optical emission spectrometer) for quantitative analysis of metal content.

[3] = Treatment of pre-existing HFD-induced obesity (DIO), male mice; assay type: in vivo, C57BL/6J male mice
Excerpt: After confirming that concurrent treatment with N-ABD094-rhArg (SEQ ID NO: 50) can effectively prevent HFD-induced obesity and associated complications and comorbidities including insulin resistance, glucose intolerance, hyperglycemia, dyslipidemia, hepatic steatosis, chronic inflammation, and whitening of BAT, next, we studied the efficacy of N-ABD094-rhArg (SEQ ID NO: 50) in reducing obesity and reversing these disorders in mice with pre-existing diet-induced obesity (DIO). C57BL/6J male mice were fed a HFD from 5 week old for 12 weeks to induce obesity and associated complications and comorbidities. They were then stratified according to the bodyweight into 2 groups and treated with either 600-700U N-ABD094-rhArg (SEQ ID NO: 50) or saline as vehicle control at 7-day intervals for 12 weeks while continued to be fed the HFD. One group of mice were fed a matched low fat diet (LFD) and injected with saline throughout the study to serve as the lean control of various measurements. Two cohorts, with n=5 in each group, have been separately conducted. Mice were housed in groups of 5. Similar results were obtained in the two independent cohorts. Data of one cohort of mice were presented in Examples 23-28.

B1: N-ABD094-rhArg: albumin binding domain ABD094 fused N-terminally to recombinant human arginase I, SEQ ID NO: 50 (protein)
chain: MHHHHHHDEAVDANSLAEAKEAANAELDSYGVSDFYKRLIDKAKTVEGVEALKDAILAALPSGSNNNNNNGSGGMSAKSRTIGIIGAPFSKGQPRGGVEEGPTVLRKAGLLEKLKEQECDVKDYGDLPFADIPNDSPFQIVKNPRSVGKASEQLAGKVAEVKKNGRISLVLGGDHSLAIGSISGHARVHPDLGVIWVDAHTDINTPLTTTSGNLHGQPVSFLLKELKGKIPDVPGFSWVTPCISAKDIVYIGLRDVDPGEHYILKTLGIKYFSMTEVDRLGIGKVMEETLSYLLGRKKRPIHLSFDVDGLDPSFTPATGTPVVGGLTYREGLYITEEIYKTGLLSGLDIMEVNPSLGKTPEEVTRTVNTAVAITLACFGLAREGNHKPIDYLNPPK
modifications: Mn2+; N-ABD094-rhArg, Synthesized in the Lab
protection from weight gain and excessive accumulation of WAT ([1]; 12 weeks): similarly effective
insulin sensitivity (ITT) and glucose tolerance (GTT) ([1]; ITT week 7, GTT week 11): improve
Km [2]: 1370 to 1890 µM
kcat [2]: 82 to 98 s⁻¹
HOMA-IR score ([3]; 4 weeks after treatment (35.1 prior to treatment)): 1.2
Mcp1 and Tgfb expression in pancreas ([3]; 12 weeks): significantly downregulate
Mcp1 expression in perigonadal WAT ([3]; 12 weeks): significantly downregulated
WAT within the pancreas and heart (histology) ([3]; 12 weeks): prominent reduction
amount of collagen fibres in kidney (Sirius red) ([3]; 12 weeks): prominently reduced
anti-inflammatory genes (Il10, Il22, Infg) in liver ([3]; 12 weeks): markedly upregulate
lipid droplets in liver (oil red O) ([3]; 12 weeks): dramatic clearance
liver triglyceride concentrations ([3]; 12 weeks): reduced to a level similar to the lean control
plasma ALT and AST concentrations ([3]; 12 weeks): comparable to the lean control
profibrotic gene Col1a1 in kidney ([3]; 12 weeks): greatly suppressed
profibrotic gene Tgfb in liver ([3]; 12 weeks): restored to a level similar to the lean control
proinflammatory genes (Il1a, Il1b) in liver ([3]; 12 weeks): significantly downregulate
proinflammatory genes (Mcp1, Tnfa, Il1b) in kidney, downregulated to ([3]; 12 weeks): levels similar to the lean control
serum concentrations of Mcp1 ([3]; 12 weeks): corrected to a level similar to the lean control mice
triglyceride concentrations in kidney, pancreas, heart and skeletal muscle ([3]; 12 weeks): restored a level similar to the lean control
vacuoles in renal tubules and lipids in glomeruli (histology) ([3]; 12 weeks): marked reduction
weight of kidney, pancreas and heart ([3]; 12 weeks, to a level similar to lean control): significantly reduce
reduction of bodyweight ([3]; 600-700U at 7-day intervals, by 5 weeks, HFD continued): over 30%
fasting plasma leptin and total cholesterol levels ([3]; 600-700U weekly): markedly reduced to normal levels
adipocyte size in WAT (histology) ([3]; 600-700U weekly, 12 weeks): prominent diminution
weight of fat pad at visceral and subcutaneous depots ([3]; 600-700U weekly, 12 weeks): significantly reduced
mRNA levels of lipogenesis related genes in liver ([3]; 600U weekly, 12 weeks): significantly downregulated
glucose tolerance (GTT) ([3]; by 3 weeks of treatment): significant improvement
fasting blood glucose and plasma insulin ([3]; by 4 weeks of treatment): restored to levels similar to the lean control mice
insulin sensitivity (ITT) ([3]; by 4 weeks of treatment, comparable to lean control): marked increase
glucose tolerance (GTT) ([3]; by 7 weeks of treatment, level similar to lean control): fully restored
